{"source": "paper PMC5608357", "about": "“Identification of LAG3 high affinity aptamers by HT-SELEX and Conserved Motif Accumulation (CMA)”", "binders": {"B1": {"name": "LAG3 Apt2 (structured_RNA)", "RNA": "GGGAGAGAGAUAUAAGGGUCUUGCCUGAUGGAGUUGGAGAGGACCAUCACCCAUUACCAAAUUCUCUCCC", "modifications": "2'-F-U, 2'-F-C"}, "B2": {"name": "LAG3 Apt1 (structured_RNA)", "RNA": "GGGAGAGAGAUAUAAGGGCCUCCUGAUACCCGCUGCUAUCUGGACCGAUCCCAUUACCAAAUUCUCUCCC", "modifications": "2'-F-U, 2'-F-C"}, "B3": {"name": "LAG3 Apt1, biotinylated (structured_RNA)", "RNA": "B2 RNA", "modifications": "2'-F-U, 2'-F-C"}, "B4": {"name": "LAG3 Apt5 (structured_RNA)", "RNA": "GGGAGAGAGAUAUAAGGGUCUUGCCCAUCGACAAUAGAGCCCAGUCGCUGCCCAUUACCAAAUUCUCUCC", "modifications": "2'-F-U, 2'-F-C"}, "B5": {"name": "LAG3 Apt4 (structured_RNA)", "RNA": "GGGAGAGAGAUAUAAGGGACCGAAUCUGGUUAAUCUGCCUCACGUUAGGCCCAUUACCAAAUUCUCUCCC", "modifications": "2'-F-U, 2'-F-C"}}, "key": {"LAG3-Fc (rmLAG3-Fc) [1]": {"target": "T1, LAG3-Fc (rmLAG3-Fc) (mouse, UniProt Q61790 24-442)", "T1 sequence (Q61790 24-442)": "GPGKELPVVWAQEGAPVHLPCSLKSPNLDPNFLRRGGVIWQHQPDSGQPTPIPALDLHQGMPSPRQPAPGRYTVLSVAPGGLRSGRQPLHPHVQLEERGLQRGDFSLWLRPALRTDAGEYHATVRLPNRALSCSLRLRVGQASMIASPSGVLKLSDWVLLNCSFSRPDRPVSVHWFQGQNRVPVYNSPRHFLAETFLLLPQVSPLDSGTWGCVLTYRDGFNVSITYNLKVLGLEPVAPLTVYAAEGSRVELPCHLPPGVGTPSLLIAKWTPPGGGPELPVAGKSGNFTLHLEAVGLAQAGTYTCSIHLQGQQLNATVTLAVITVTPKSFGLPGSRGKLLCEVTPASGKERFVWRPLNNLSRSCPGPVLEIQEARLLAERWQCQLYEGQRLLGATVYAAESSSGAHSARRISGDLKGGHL", "assay": "filter binding; 2 mM Ca2+; Filter binding: 20 mM HEPES pH 7.4, 150 mM NaCl, 2 mM CaCl2, 37 C, 30 min; SPR: PBS, 0.005% Tween 20, pH 7.4, temperature not stated", "conditions": "protein: recombinant; tags: human IgG2-Fc fusion; chain copies: 2; label: 32P (alpha-ATP)"}, "LAG3-Fc (rmLAG3-Fc) [2]": {"target": "T1, LAG3-Fc (rmLAG3-Fc)", "assay": "SPR; apparent Kd from equilibrium RU; printed kon 1x10^3, koff <2.1x10^-4 s-1 do not match it; Filter binding: 20 mM HEPES pH 7.4, 150 mM NaCl, 2 mM CaCl2, 37 C, 30 min; SPR: PBS, 0.005% Tween 20, pH 7.4, temperature not stated", "conditions": "protein: recombinant; tags: human IgG2-Fc fusion; chain copies: 2"}}}
{"binder": "B1", "values": [{"measurement": "Kd", "setting": "LAG3-Fc (rmLAG3-Fc) [1]", "result": 50, "unit": "nM"}]}
{"binder": "B2", "values": [{"measurement": "Kd", "setting": "LAG3-Fc (rmLAG3-Fc) [1]", "result": 20, "unit": "nM"}]}
{"binder": "B3", "values": [{"measurement": "Kd", "setting": "LAG3-Fc (rmLAG3-Fc) [2]", "result": 2.7, "unit": "nM"}]}
{"binder": "B4", "values": [{"measurement": "Kd", "setting": "LAG3-Fc (rmLAG3-Fc) [1]", "result": 200, "unit": "nM"}]}
{"binder": "B5", "values": [{"measurement": "Kd", "setting": "LAG3-Fc (rmLAG3-Fc) [1]", "result": 100, "unit": "nM"}]}
